Consider 1 molecule from patent publication US20220401475A1 (Memorial Sloan Kettering, published 2022).

The target of the assay is T1, B-cell maturation antigen (BCMA) (human, UniProt Q02223 1-184).
T1 construct: whole, on cells
T1 sequence (looked up): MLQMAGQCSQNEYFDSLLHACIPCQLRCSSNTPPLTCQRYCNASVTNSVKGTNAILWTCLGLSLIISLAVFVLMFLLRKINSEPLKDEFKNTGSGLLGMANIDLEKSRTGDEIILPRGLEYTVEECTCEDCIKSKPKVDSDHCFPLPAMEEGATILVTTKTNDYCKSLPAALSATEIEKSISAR
Briefly: Flow cytometric trogocytosis assay: 1:1 co-culture of CAR T cells with KMS-12-BM for 0, 1, 2 and 4 h. BCMA loss from the tumour cells (upper panel) and BCMA gain on CAR T cells (lower panel). No concentration axis.

B1: 22-BBζ CAR (CD22-BBζ-DsRed, m971 CD22-specific scFv) (other)
chain: QVQLQQSGPGLVKPSQTLSLTCAISGDSVSSNSAAWNWIRQSPSRGLEWLGRTYYRSKWYNDYAVSVKSRITINPDTSKNQFSLQLNSVTPEDTAVYYCAREVTGDLEDAFDIWGQGTMVTVSSGGGGSDIQMTQSPSSLSASVGDRVTITCRASQTIWSYLNWYQQRPGKAPNLLIYAASSLQSGVPSRFSGRGSGTDFTLTISSLQAEDFATYYCQQSYSIPQTFGQGTKLEIKAAAPTTTPAPRPPTPAPTIASQPLSLRPEACRPAAGGAVHTRGLDFACDIYIWAPLAGTCGVLLLSLVITLYCNKRGRKKLLYIFKQPFMRPVQTTQEEDGCSCRFPEEEEGGCELRVKFSRSADAPAYQQGQNQLYNELNLGRREEYDVLDKRRGRDPEMGGKPRRKNPQEGLYNELQKDKMAEAYSEIGMKGERRRGKGHDGLYQGLSTATKDTYDALHMQALPPR
notes: Chimeric antigen receptor on human T cells
With B1, the binding result is on record as “no binding”.
